Measured values as given in paper PMC5854381, “Dynamics of Scabin toxin. A proposal for the binding mode of the DNA substrate”.

B1: Cy3-dsDNA 21 bp (dsDNA)
DNA 1: GGAAGAGAGAGAGAAAGAGAG
DNA 2: CTCTCTTTCTCTCTCTCTTCC

How the values were obtained:
[1] = system: NC(=O)c1ccc[n+]([C@@H]2O[C@H](COP(=O)(O)OP(=O)(O)OC[C@H]3O[C@@H](n4cnc5c4ncn4ccnc54)[C@H](O)[C@@H]3O)[C@@H](O)[C@H]2O)c1; experiment: purified protein; conditions: pH 7.9
[2] = target: Scabin WT (Streptomyces scabies, UniProt C9Z6T8 26-200); experiment: fluorescence anisotropy; no NAD+ mentioned; text labels this WT value N110A [sic]; Anisotropy: 5 uM Cy3-dsDNA, 25 mM Tris-HCl pH 8.2, 100 mM NaCl, 22 C; conditions: protein: recombinant; label: 5' Cy3 on strand 1; blunt

Molecule	Km [1]	Kd [2]
(Streptomyces scabiei 87.22)	68 ± 3 µM	
B1		51 ± 4 µM
